The target in test [1] is FLT3 receptor in adult mouse DRG sensory neurons (mouse) (UniProt Q00342). Briefly: cell-based or functional assay.
Test [2] addresses T1, SNAP tagged human FLT3, full-length, expressed in HEK293T cells (human, UniProt P36888 27-993, SNAP tag covalently labelled with SNAP-Lumi4-Tb).
T1 construct: whole, on cells; Transiently transfected HEK293T cells; also called full-length hFLT3; hFLT3; not shown: SNAP tag (plasmid from Cisbio Bioassays)
T1 sequence (looked up): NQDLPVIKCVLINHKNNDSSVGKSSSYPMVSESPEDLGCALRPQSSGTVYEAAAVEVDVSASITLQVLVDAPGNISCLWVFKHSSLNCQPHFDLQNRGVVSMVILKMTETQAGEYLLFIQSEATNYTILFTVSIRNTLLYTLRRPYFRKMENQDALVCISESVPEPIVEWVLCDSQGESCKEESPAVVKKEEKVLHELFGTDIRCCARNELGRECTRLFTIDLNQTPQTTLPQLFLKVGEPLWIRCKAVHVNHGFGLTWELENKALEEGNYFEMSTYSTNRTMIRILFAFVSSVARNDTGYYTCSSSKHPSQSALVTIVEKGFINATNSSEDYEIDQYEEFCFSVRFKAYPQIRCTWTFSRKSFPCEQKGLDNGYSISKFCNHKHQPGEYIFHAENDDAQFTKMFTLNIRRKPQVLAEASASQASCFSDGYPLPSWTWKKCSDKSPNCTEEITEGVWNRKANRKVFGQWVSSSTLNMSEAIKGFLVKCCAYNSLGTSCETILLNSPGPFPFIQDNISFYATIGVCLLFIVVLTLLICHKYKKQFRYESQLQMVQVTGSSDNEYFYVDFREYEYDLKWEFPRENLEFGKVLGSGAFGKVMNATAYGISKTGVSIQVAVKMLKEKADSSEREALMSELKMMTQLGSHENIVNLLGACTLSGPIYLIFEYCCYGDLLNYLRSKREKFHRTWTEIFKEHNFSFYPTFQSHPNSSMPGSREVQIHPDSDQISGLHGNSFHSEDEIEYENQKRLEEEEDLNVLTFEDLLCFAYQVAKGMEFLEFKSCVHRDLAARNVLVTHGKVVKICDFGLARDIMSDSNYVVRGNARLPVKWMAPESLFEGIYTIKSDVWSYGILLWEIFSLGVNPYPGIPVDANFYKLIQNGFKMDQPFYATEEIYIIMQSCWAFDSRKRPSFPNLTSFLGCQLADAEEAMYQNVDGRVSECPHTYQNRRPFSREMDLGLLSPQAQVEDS
Briefly: TR-FRET displacement of 0.5 nM Red-FL on HEK293T cells expressing SNAP tagged full-length hFLT3. How it is done: (§1) TR-FRET binding assays. TR-FRET binding assays were performed 24 h after transfection on fresh cells. When using frozen cells, binding assays were carried out immediately after cells thawing. When the assay was carried out on adherent cells in 96-well plates, the cell density was 50,000 cells per well, while a density of 10,000 cells per well was used to carry out binding assays in suspension in 384-well small volume plates.
(§2) Cells were incubated with 0.5 nM Red-FL in the presence of increasing concentrations of the antibody. In the plates containing labelled cells, 50 μl of Tag-lite® labelling medium, 25 μl of compounds to be tested were added and incubated for 1 h at room temperature prior to the addition of 25 μl of Red-FL. Plates were then incubated at room temperature for 4 h or overnight before signal detection.
(§3) Signal detection. Signal was detected using an advanced fluorescence microplate reader (RUBYstar, BMG Labtech) equipped with a HTRF optic module allowing a donor excitation at 337 nm and a signal collection both at 665 nm and 620 nm. A frequency of 20 flashes/well is selected for the laser excitation. […] Results were expressed as percentage of signal measured in the presence of Red-FL alone, corrected for non-specific binding measured in the presence of […].
In general terms: In TR-FRET formats the signal depends on donor and acceptor labels being close together.

Test [3] concerns the target T2, SNAP tagged mouse FLT3, full-length, expressed in HEK293T cells (mouse, UniProt Q00342 28-1000, SNAP tag covalently labelled with SNAP-Lumi4-Tb).
T2 construct: whole, on cells; Transiently transfected HEK293T cells; also called full-length mFLT3; mFLT3; not shown: SNAP tag (plasmid from Cisbio Bioassays)
T2 sequence (looked up): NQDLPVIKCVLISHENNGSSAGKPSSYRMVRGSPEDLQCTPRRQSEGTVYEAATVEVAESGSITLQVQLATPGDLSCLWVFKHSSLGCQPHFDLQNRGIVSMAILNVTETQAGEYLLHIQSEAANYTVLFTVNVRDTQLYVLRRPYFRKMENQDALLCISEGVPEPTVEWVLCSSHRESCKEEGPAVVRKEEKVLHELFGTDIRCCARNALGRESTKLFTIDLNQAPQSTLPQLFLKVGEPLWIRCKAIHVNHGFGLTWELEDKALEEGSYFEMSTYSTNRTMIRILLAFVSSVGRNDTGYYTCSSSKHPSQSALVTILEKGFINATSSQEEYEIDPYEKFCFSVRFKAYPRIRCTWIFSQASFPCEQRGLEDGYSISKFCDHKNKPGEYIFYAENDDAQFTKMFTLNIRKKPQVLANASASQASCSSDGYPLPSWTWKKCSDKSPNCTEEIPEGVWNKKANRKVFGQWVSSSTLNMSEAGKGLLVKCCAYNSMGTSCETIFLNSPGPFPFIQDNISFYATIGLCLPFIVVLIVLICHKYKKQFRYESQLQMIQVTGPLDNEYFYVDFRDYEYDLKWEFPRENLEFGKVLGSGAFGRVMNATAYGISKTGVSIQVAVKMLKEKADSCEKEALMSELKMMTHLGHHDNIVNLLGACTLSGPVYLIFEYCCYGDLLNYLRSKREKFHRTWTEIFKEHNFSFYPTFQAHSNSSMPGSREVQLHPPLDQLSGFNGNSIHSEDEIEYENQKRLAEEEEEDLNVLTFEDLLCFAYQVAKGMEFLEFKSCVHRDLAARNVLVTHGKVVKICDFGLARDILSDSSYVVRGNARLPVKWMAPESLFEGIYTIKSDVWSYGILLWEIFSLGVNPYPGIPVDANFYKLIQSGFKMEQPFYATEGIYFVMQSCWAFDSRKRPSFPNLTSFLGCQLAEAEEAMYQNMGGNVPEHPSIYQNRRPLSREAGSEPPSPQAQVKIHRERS
Briefly: TR-FRET displacement of 0.5 nM Red-FL on HEK293T cells expressing SNAP tagged full-length mFLT3. Here is the method:
as §1, §2, §3

For FL (FLT3-Ligand, from ABCYS SA), in test [1], the mean fold increase in TRPV1 response, ΔFarea stood at 512%; the mean fold increase in TRPV1 response, ΔFpeak is 212%; the potentiation of the capsaicin response ([Ca2+]i, Fura-2) in DRG neurons: share of capsaicin-responding cells potentiated is 56%.

B1: A3 antibody (human monoclonal antibody against FLT3) (antibody, V domains shown)
VH: EVQLVESGGSLVKPGGSLRLSCAASGFTFSNSYMNWVRQAPGKGLEWISDISGSSRDIDYADFVKGRFTISRDNATNSLYLQMNSLRAEDTAVYYCVRSGNSGMDVWGRGTLVTVSS
VL: QSVLTQPASVSGSPGQSITISCAGTSSDVGGGYYVSWYQQHPGKAPKLMIYYDSYRPSGVSNRFSGSKSGNTASLTISGLQAEDEADYYCSSYTNNSTRVFGGGTKLEIK
notes: also called antibody A3; anti-FLT3 A3 antibody
As for B1, the IC50 in test [2] and in test [3] was approximately 17 µg/mL throughout.

One may read the IC50 as the concentration that inhibits the measured activity by half. A higher IC50 goes with weaker potency.

Values taken from patent US20190002888A1 (INSTITUT NATIONAL DE LA SANTE ET DE LA RECHERCHE MEDICALE …, published 2019).
